Experimental data as given in patent publication US20240254245A1 (JIANGSU HENGRUI PHARMACEUTICALS, published 2024).

T1: human RANKL protein (Sino Biological, 11682-HNCH) (human, UniProt O14788 136-317, limits assumed)
T1 construct: Bought protein
T1 sequence (looked up): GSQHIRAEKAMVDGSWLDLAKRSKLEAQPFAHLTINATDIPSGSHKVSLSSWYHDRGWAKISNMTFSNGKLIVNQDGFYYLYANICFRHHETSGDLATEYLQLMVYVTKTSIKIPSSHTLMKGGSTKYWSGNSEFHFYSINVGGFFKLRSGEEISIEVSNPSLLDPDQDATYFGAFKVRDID

B1: 2-79L (antibody, V domains shown)
VH: EVQLLESGGGLVQPGGSLRLSCAASGFTFSSYAMSWVRQAPGKGLEWVSGITGSGGSTYYADSVKGRFTISRDNSKNTLYLQMNSLRAEDTAVYYCAKDPGTTVIMSWFDPWGQGTLVTVSS
VL: EIVLTQSPGTLSLSPGERATLSCRASQSVRGRYLAWYQQKPGQAPRLLIYGSSSRATGIPDRFSGSGSGTDFTLTISRLEPEDFAVFYCQQYGSSPRTFGQGTKVEIK
notes: Variable regions fused to human constant regions
B2: 3-20L (antibody, IgG4, V domains shown)
VH: EVQLLESGGGLVQPGGSLRLSCAASGFTFSSYAMSWVRQAPGKGLEWVSGITGSGGSTYYADSVKGRFTISRDNSKNTLYLQMNSLRAEDTAVYYCAKDPGTTVIMSWFDPWGQGTLVTVSS
VL: EIVLTQSPGTLSLSPGERATLSCRASQAIRGPNLAWYQQKPGQAPRLLIYDTSSRATGIPDRFSGSGSGTDFTLTISRLEPEDFAVFYCQQYGSSPRTFGQGTKVEIK
notes: as for B1
B3: 2-76L (antibody, IgG4, V domains shown)
VH: EVQLLESGGGLVQPGGSLRLSCAASGFTFSSYAMSWVRQAPGKGLEWVSGITGSGGSTYYADSVKGRFTISRDNSKNTLYLQMNSLRAEDTAVYYCAKDPGTTVIMSWFDPWGQGTLVTVSS
VL: EIVLTQSPGTLSLSPGERATLSCRASQAIPYNQLAWYQQKPGQAPRLLIYGVSSRATGIPDRFSGSGSGTDFTLTISRLEPEDFAVFYCQQYGSSPRTFGQGTKVEIK
notes: as for B1
B4: 3-83L (antibody, V domains shown)
VH: EVQLLESGGGLVQPGGSLRLSCAASGFTFSSYAMSWVRQAPGKGLEWVSGITGSGGSTYYADSVKGRFTISRDNSKNTLYLQMNSLRAEDTAVYYCAKDPGTTVIMSWFDPWGQGTLVTVSS
VL: EIVLTQSPGTLSLSPGERATLSCRASQALGVRGLAWYQQKPGQAPRLLIYGASSRATGIPDRFSGSGSGTDFTLTISRLEPEDFAVFYCQQYGSSPRTFGQGTKVEIK
notes: as for B1
B5: 4-64L (antibody, V domains shown)
VH: EVQLLESGGGLVQPGGSLRLSCAASGFTFSSYAMSWVRQAPGKGLEWVSGITGSGGSTYYADSVKGRFTISRDNSKNTLYLQMNSLRAEDTAVYYCAKDPGTTVIMSWFDPWGQGTLVTVSS
VL: EIVLTQSPGTLSLSPGERATLSCRASQSVRGRYLAWYQQKPGQAPRLLIYGASSRATGIPDRFSGSGSGTDFTLTISRLEPEDFAVFYCQQYGSSPRIFGQGTKVEIK
notes: as for B1
B6: 2-87L (antibody, IgG4, V domains shown)
VH: EVQLLESGGGLVQPGGSLRLSCAASGFTFSSYAMSWVRQAPGKGLEWVSGITGSGGSTYYADSVKGRFTISRDNSKNTLYLQMNSLRAEDTAVYYCAKDPGTTVIMSWFDPWGQGTLVTVSS
VL: EIVLTQSPGTLSLSPGERATLSCRASQYLPFHRLAWYQQKPGQAPRLLIYDTSSRATGIPDRFSGSGSGTDFTLTISRLEPEDFAVFYCQQYGSSPRTFGQGTKVEIK
notes: as for B1
B7: 5-58H (antibody, V domains shown)
VH: EVQLLESGGGLVQPGGSLRLSCAASGFTFSSYAMSWVRQAPGKGLEWVSGITGSGGSTYYADSVKGRFTISRDNSKNTLYLQMNSLRAEDTAVYYCVQDPGFTYIMSWFDPWGQGTLVTVSS
VL: EIVLTQSPGTLSLSPGERATLSCRASQSVRGRYLAWYQQKPGQAPRLLIYGASSRATGIPDRFSGSGSGTDFTLTISRLEPEDFAVFYCQQYGSSPRTFGQGTKVEIK
notes: as for B1
B8: 1-22H (antibody, V domains shown)
VH: EVQLLESGGGLVQPGGSLRLSCAASGFTFADYAMSWVRQAPGKGLEWVSGISASGSSTYYADSVKGRFTISRDNSKNTLYLQMNSLRAEDTAVYYCAKDPGTTVIMSWFDPWGQGTLVTVSS
VL: EIVLTQSPGTLSLSPGERATLSCRASQSVRGRYLAWYQQKPGQAPRLLIYGASSRATGIPDRFSGSGSGTDFTLTISRLEPEDFAVFYCQQYGSSPRTFGQGTKVEIK
notes: Variable regions were fused to human heavy and light chain constant regions to form complete chains
B9: 2-52L (antibody, V domains shown)
VH: EVQLLESGGGLVQPGGSLRLSCAASGFTFSSYAMSWVRQAPGKGLEWVSGITGSGGSTYYADSVKGRFTISRDNSKNTLYLQMNSLRAEDTAVYYCAKDPGTTVIMSWFDPWGQGTLVTVSS
VL: EIVLTQSPGTLSLSPGERATLSCRASQSVRGRYLAWYQQKPGQAPRLLIYQGSSRATGIPDRFSGSGSGTDFTLTISRLEPEDFAVFYCQQYGSSPRTFGQGTKVEIK
notes: as for B1
B10: 5-53H (antibody, V domains shown)
VH: EVQLLESGGGLVQPGGSLRLSCAASGFTFSSYAMSWVRQAPGKGLEWVSGITGSGGSTYYADSVKGRFTISRDNSKNTLYLQMNSLRAEDTAVYYCAQDPCFTYIMSWFDPWGQGTLVTVSS
VL: EIVLTQSPGTLSLSPGERATLSCRASQSVRGRYLAWYQQKPGQAPRLLIYGASSRATGIPDRFSGSGSGTDFTLTISRLEPEDFAVFYCQQYGSSPRTFGQGTKVEIK
notes: as for B1
B11: 3-85L (antibody, V domains shown)
VH: EVQLLESGGGLVQPGGSLRLSCAASGFTFSSYAMSWVRQAPGKGLEWVSGITGSGGSTYYADSVKGRFTISRDNSKNTLYLQMNSLRAEDTAVYYCAKDPGTTVIMSWFDPWGQGTLVTVSS
VL: EIVLTQSPGTLSLSPGERATLSCRASQSIPGPRLAWYQQKPGQAPRLLIYGASSRATGIPDRFSGSGSGTDFTLTISRLEPEDFAVFYCQQYGSSPRTFGQGTKVEIK
notes: as for B1
B12: 2-72L (antibody, V domains shown)
VH: EVQLLESGGGLVQPGGSLRLSCAASGFTFSSYAMSWVRQAPGKGLEWVSGITGSGGSTYYADSVKGRFTISRDNSKNTLYLQMNSLRAEDTAVYYCAKDPGTTVIMSWFDPWGQGTLVTVSS
VL: EIVLTQSPGTLSLSPGERATLSCRASQSLGARGLAWYQQKPGQAPRLLIYGTSSRATGIPDRFSGSGSGTDFTLTISRLEPEDFAVFYCQQYGSSPRTFGQGTKVEIK
notes: as for B1
B13: 5-51H (antibody, V domains shown)
VH: EVQLLESGGGLVQPGGSLRLSCAASGFTFSSYAMSWVRQAPGKGLEWVSGITGSGGSTYYADSVKGRFTISRDNSKNTLYLQMNSLRAEDTAVYYCAKDPCFSYIMSWFDPWGQGTLVTVSS
VL: EIVLTQSPGTLSLSPGERATLSCRASQSVRGRYLAWYQQKPGQAPRLLIYGASSRATGIPDRFSGSGSGTDFTLTISRLEPEDFAVFYCQQYGSSPRTFGQGTKVEIK
notes: as for B1
B14: 5-16H (antibody, V domains shown)
VH: EVQLLESGGGLVQPGGSLRLSCAASGFTFSSYAMSWVRQAPGKGLEWVSGITGSGGSTYYADSVKGRFTISRDNSKNTLYLQMNSLRAEDTAVYYCAKDPASIVIMSWFDPWGQGTLVTVSS
VL: EIVLTQSPGTLSLSPGERATLSCRASQSVRGRYLAWYQQKPGQAPRLLIYGASSRATGIPDRFSGSGSGTDFTLTISRLEPEDFAVFYCQQYGSSPRTFGQGTKVEIK
notes: as for B1
B15: 3-37L (antibody, IgG4, V domains shown)
VH: EVQLLESGGGLVQPGGSLRLSCAASGFTFSSYAMSWVRQAPGKGLEWVSGITGSGGSTYYADSVKGRFTISRDNSKNTLYLQMNSLRAEDTAVYYCAKDPGTTVIMSWFDPWGQGTLVTVSS
VL: EIVLTQSPGTLSLSPGERATLSCRASQAIRGRKLAWYQQKPGQAPRLLIYDTSSRATGIPDRFSGSGSGTDFTLTISRLEPEDFAVFYCQQYGSSPRTFGQGTKVEIK
notes: as for B1

target: T1, human RANKL protein (Sino Biological, …); experiment: SPR (Biacore), antibody captured on Protein A chip, RANKL in flow, 1:1 fit
Method: Reaction signals were detected in real time by using Biacore, and binding and dissociation curves were obtained. After dissociation was complete in each cycle, the biochip was washed and regenerated with a glycine-hydrochloric acid regeneration solution (GE, BR-1003-54) having a pH of 1.5. Fitting was performed on the experimental data using BIAevaluation version 4.1 software with a 1:1 model, and affinity values were obtained.

B1 and B2 are within 1.5-fold of each other in Kd: 16.3 nM for the first, 13.5 nM for the second.

B3 and B4 are within 1.5-fold of each other in Kd: 20.3 nM for the first, 20.7 nM for the second.

B5 and B6 are within 1.5-fold of each other in Kd: 17.1 nM for the first, 25.6 nM for the second.

First: B7
Second: B8
The Kd of the first is 4.2-fold higher: 41 nM for the first, 9.81 nM for the second. The second binds more tightly here.

Going from B9 to B10, the Kd rises from 14.2 nM to 34 nM (2.4-fold).

B11 and B12 are within 1.5-fold of each other in Kd: 22.3 nM for the first, 19 nM for the second.

First: B13
Second: B14
The Kd of the first is 2.6-fold higher: 23.6 nM for the first, 8.91 nM for the second.

For B15, the Kd was 19.7 nM.

Going from B1 to B2, the “Ratio of affinities (fold increase in affinity relative to denosumab)” value rises from 0.57 fold to 0.68 fold.

Going from B3 to B4, the “Ratio of affinities (fold increase in affinity relative to denosumab)” value falls from 0.46 fold to 0.45 fold.

First: B5
Second: B6
The “Ratio of affinities (fold increase in affinity relative to denosumab)” value of the first is higher: 0.54 fold for the first, 0.36 fold for the second.

First: B7
Second: B8
The “Ratio of affinities (fold increase in affinity relative to denosumab)” value of the first is lower: 0.23 fold for the first, 0.94 fold for the second.

Going from B9 to B10, the “Ratio of affinities (fold increase in affinity relative to denosumab)” value falls from 0.65 fold to 0.27 fold.

Going from B11 to B12, the “Ratio of affinities (fold increase in affinity relative to denosumab)” value rises from 0.41 fold to 0.49 fold.

Going from B13 to B14, the “Ratio of affinities (fold increase in affinity relative to denosumab)” value rises from 0.39 fold to 1.04 fold.

B15 was tested, and the “Ratio of affinities (fold increase in affinity relative to denosumab)” value was 0.47 fold.

B1 and B2 are within 1.5-fold of each other in koff: 0.000232 s⁻¹ for the first, 0.000272 s⁻¹ for the second.

B3 and B4 are within 1.5-fold of each other in koff: 0.000341 s⁻¹ for the first, 0.000322 s⁻¹ for the second.

B5 and B6 are within 1.5-fold of each other in koff: 0.000253 s⁻¹ for the first, 0.000273 s⁻¹ for the second.

First: B7
Second: B8
The koff of the first is 2-fold higher: 0.000501 s⁻¹ for the first, 0.000253 s⁻¹ for the second.

Going from B9 to B10, the koff rises from 0.000222 s⁻¹ to 0.000583 s⁻¹ (2.6-fold).

B11 and B12 are within 1.5-fold of each other in koff: 0.000335 s⁻¹ for the first, 0.000308 s⁻¹ for the second.

Going from B13 to B14, the koff falls from 0.00069 s⁻¹ to 0.00026 s⁻¹ (2.7-fold).

In the case of B15, the koff is reported as 0.000305 s⁻¹.

B1 and B2 are within 1.5-fold of each other in kon: 14200 M⁻¹ s⁻¹ for the first, 20100 M⁻¹ s⁻¹ for the second.

B3 and B4 are within 1.5-fold of each other in kon: 16800 M⁻¹ s⁻¹ for the first, 15600 M⁻¹ s⁻¹ for the second.

B5 and B6 are within 1.5-fold of each other in kon: 14800 M⁻¹ s⁻¹ for the first, 10700 M⁻¹ s⁻¹ for the second.

Compared with B7, B8 is 2.1-fold higher in kon: 12200 M⁻¹ s⁻¹ for the first, 25800 M⁻¹ s⁻¹ for the second.

B9 and B10 are within 1.5-fold of each other in kon: 15700 M⁻¹ s⁻¹ for the first, 17200 M⁻¹ s⁻¹ for the second.

B11 and B12 are within 1.5-fold of each other in kon: 15000 M⁻¹ s⁻¹ for the first, 16200 M⁻¹ s⁻¹ for the second.

B13 and B14 are the same in kon: 29200 M⁻¹ s⁻¹ for the first, 29200 M⁻¹ s⁻¹ for the second.

In the case of B15, the kon is reported as 15500 M⁻¹ s⁻¹.

target: T1, human RANKL protein (Sino Biological, …); experiment: blocking ELISA: antibody titrated with fixed biotin-human RANKL, on coated human RANK
Method: After the incubation was complete, the plate was washed 3 times with PBST. Streptavidin-HRP (Invitrogen, 434323, diluted at 1:4000) was added at 100 μL/well, and the plate was incubated at 37° C. for 1 h. The supernatant was removed. After the plate was washed 3 times with PBST, TMB chromogenic substrate (KPL, 5120-0077) was added at 100 μL/well, and the plate was incubated at room temperature for 10 to 15 min. […] The absorbance values at 450 nm were taken using a microplate reader.

B7 and B10 are within 1.5-fold of each other in IC50: 0.999 nM for the first, 1.37 nM for the second.
